Target: NLRP3 protein, purchased recombinant (UniProt Q96P20 1-1036)
Test: SPR

Chain of NLRP3 protein, purchased recombinant (Q96P20 whole entry): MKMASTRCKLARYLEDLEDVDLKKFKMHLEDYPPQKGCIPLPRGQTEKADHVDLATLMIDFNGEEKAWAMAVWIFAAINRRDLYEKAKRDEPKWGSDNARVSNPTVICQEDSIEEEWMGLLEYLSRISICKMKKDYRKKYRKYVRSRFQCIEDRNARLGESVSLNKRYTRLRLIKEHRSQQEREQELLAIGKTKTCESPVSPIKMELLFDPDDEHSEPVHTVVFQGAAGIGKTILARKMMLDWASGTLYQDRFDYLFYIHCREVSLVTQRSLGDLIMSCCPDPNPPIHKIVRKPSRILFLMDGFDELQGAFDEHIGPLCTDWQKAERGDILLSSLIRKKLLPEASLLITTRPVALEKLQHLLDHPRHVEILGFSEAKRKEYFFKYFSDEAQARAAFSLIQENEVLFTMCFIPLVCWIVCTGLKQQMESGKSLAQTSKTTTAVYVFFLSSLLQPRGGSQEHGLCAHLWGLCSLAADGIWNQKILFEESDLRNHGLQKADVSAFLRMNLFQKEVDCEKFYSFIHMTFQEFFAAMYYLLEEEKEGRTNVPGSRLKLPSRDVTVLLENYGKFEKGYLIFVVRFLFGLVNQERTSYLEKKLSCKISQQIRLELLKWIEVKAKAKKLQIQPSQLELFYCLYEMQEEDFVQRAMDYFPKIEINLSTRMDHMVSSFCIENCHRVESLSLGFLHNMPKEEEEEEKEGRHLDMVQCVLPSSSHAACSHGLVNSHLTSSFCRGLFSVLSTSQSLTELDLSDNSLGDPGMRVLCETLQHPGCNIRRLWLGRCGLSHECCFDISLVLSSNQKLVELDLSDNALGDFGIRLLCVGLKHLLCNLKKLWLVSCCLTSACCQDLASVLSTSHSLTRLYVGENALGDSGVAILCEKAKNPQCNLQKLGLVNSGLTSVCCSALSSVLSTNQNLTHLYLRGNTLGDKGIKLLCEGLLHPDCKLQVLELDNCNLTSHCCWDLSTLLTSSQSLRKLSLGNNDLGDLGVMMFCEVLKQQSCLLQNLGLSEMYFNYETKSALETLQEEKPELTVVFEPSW

Kd: ~3.45 µM
B1: ASCT2 protein (alanine-serine-cysteine transporter 2), purchased recombinant (natural protein, UniProt Q15758 1-541, looked up)
chain: MVADPPRDSKGLAAAEPTANGGLALASIEDQGAAAGGYCGSRDQVRRCLRANLLVLLTVVAVVAGVALGLGVSGAGGALALGPERLSAFVFPGELLLRLLRMIILPLVVCSLIGGAASLDPGALGRLGAWALLFFLVTTLLASALGVGLALALQPGAASAAINASVGAAGSAENAPSKEVLDSFLDLARNIFPSNLVSAAFRSYSTTYEERNITGTRVKVPVGQEVEGMNILGLVVFAIVFGVALRKLGPEGELLIRFFNSFNEATMVLVSWIMWYAPVGIMFLVAGKIVEMEDVGLLFARLGKYILCCLLGHAIHGLLVLPLIYFLFTRKNPYRFLWGIVTPLATAFGTSSSSATLPLMMKCVEENNGVAKHISRFILPIGATVNMDGAALFQCVAAVFIAQLSQQSLDFVKIITILVTATASSVGAAGIPAGGVLTLAIILEAVNLPVDHISLILAVDWLVDRSCTVLNVEGDALGAGLLQNYVDRTESRSTEPELIQVKSELPLDPLPVPTEEGNPLLKHYRGPAGDATVASEKESVM
